Assay: soluble on expression in E. coli; label from the status in PepcDB or PDB records

| Sequence | soluble on expression in E. coli |
| --- | --- |
| MSHENQENYDDYNGDHDNKYDQQYDESSRGDDFGGRGRGFNGPPGGAGSFFGVPPAARGRGGPGMAPPGFAGRGRGFATPGMSSGFAPRGRGMPPGRGGYMPPYRGGYGVAPNGGPGAYGGPYNGGPGAYGAQAPGPNPQDQEQRLKRLSGCEEGQELWVETETAEGKKYFYHPVNRNTIWERPQNAKIVTQPELAQLIHRATEEEKNREERMPHGQIPQNPDDAWNEFNAPDGRKYYFNSITQENTWEKPKALIDQENGGGASPEPVQSAAIAEAQAKAQAALAAFMAQQKTSSNGGGGMPLSKAQASGAAAAAAVNAEAAKKKDSTRPISSTPVSGTPWCVVWTGDDKVFFYNPSTKCSVWERPPDTYGREDVDKLVQNPPSPKAEEENNQSKKESESESESDEDGPPKAKKSRAEKKKEALIAAQKKEKERPRQMLQKPVDPAIEAEMQAAKEREKVPLEERLKQFKEMLEEKNVSTSSTFEKELSKIVFDKRYLSLGATERRACFDAFCREKIESEKAERRKRVKEAKEEFQKLLAECELNGRSSYSSFTSKFGKDPRYKAVERNRDREDAFNDFVGELHKKEKDEKRAKKEKLKAAFVKLLEEQTGLTRKSKWSTTKKTLEDEERYIALDSSSTRESLFREFVANLGDETASDIEEEQEREKRLAAQTAIANRQKEVEAELGNQLRERTKESEKQKMGEHEDTYRNLLIDLIKSTENSWHEARRILRKDERYANCDMLDKTRKESLFDDHIKSLERKRREAFFQVLDNHEKITPMMRWRDAKKIIQDEEETFVKIASNSERKVERDFRDWQERRHDHLTDEFKEMLSETKIITHKSKKLMEEGEQHMDILSVLENDKRWVRMTAMSASERDRMLEDHIENLGRKGTPPPPTQQERDRRKQ | soluble |
| MGSDKIHHHHHHMKKYYLLSLISASLIGATCIQCTSPKQKSGENTLPQKSELFVSLPDYCPTPDGMAIAPNGDLILACPNFADITQPACLMRITKDGAVSKWLDVPVLEETGWASPMGLAFNEEGDLFISDNQGWSGAEKAKNKGRVLRLKFENDQLKETITVASGMEHPNGIRIRNGKLYVTQSSLSQIKDPSGLLVSGVYCFDMNDRDIAVTNTSADQNLLTTVITKNPEVQYGLDGIVFNEAGDLFVGNFGDGAIHRIKMDAEGKVVSNDVWAQDTTQLRTTDGMCIDDKGNIWVADFSANAVARVDKDGKIQRIAQSPDCDGSDGGLDQPGEPIVWNGQVIVSCFDLVTGPDKVNTKHDKPFTLAKLSLE | not soluble |
| MAHHHHHHMAHAVGFACPHMADPSMVRNVIGVRGRALSVVVDSTNAAMAARKHYDCDDIYGMELQDQNGDGSTLESHWSQRHAKDELMAPIGGAGDHTELTLAAFAELGCMRVNWKLAEPMGWGKKSGCELLQSKRSAPNMSEYSHIFCNRDEVVERCASDRYSRGFCRRSIIEFSKQHSMDSCPIIDPAMDVRDLEAVFEKEEYLSARPGDKPSSWCLDTLPTNTTDARYPEETYLSAATQAELKCLGMQVHLKNPEKRNVRWLPCTEEETITWDTPPYNKENVICPKYAEVCTISATGGSVIPVVSWDGEARVWSRTVPPASTGQGLPGASVPVAESIDPGRGTHTKDVVTAIPERNLLLQGPWRLSVLLLLLE | soluble |
| MGYRIEFDPRAEKELEKLDREVARRILRFLRERVATLEDPRSLGEPLRGPELGRFWKYRVGDYRLICHIQDREATVLVLRVGHARDVYR | soluble |
| GSHMYEYPVFSHVQAGMFSPELRTFTKGDAERWVSTTKKASDSAFWLEVEGNSMTTPTGSKTSFPDGMLILVDPEQAVEPGDFCIARLGGDEFTFKKLIRDSGQVFLQPLNPQYPMIPCNESCSVVGKVIASQ | soluble |
| MSKYKIFVDGAVGTTGLGIFERLRAAKDIELLTLADEQRKDLKARLANVAAADLTLLCLPDTASKQLVLHAPPSAKICDTSTAHRVDPAWVYGFAELSGQFNNIQTATRVAIPGCHATGYIALLRPLIERHYLNADYPFTCHSLTGYSGGGKAMIADYQAPIRDDKFKAPRMYGLTLHHKHLAEMCAFTGSSNPPIFTPIVADYYSGMLVNVPLPLAAFTQEANDGEKISGILADYYREASLINVHYVNDLPTDGMVAANSLAGKDRLDIFVYANQTQVVLSAIFDNLGKGASGAAIQCMNIMLGRDQLADLHI | not soluble |
| MGSDKIHHHHHHMQALRKCYGIVGADDIVSEMKTWQVTSNDPHEGLTKWADGLDEAFVQLEPVATTGDGFYGHIQQTSTAELDVSVVTSTGHEIRRLDRHIRHRSADLLYVNILGRGRSEVSQRDTVVAAPMDVSIVDPRAPYSIRQEAPFQLVSIAVPPDWVEREARHCHFLSRTAAGRELSSVVWGLAKMLLAIKPDQDGLATSLAQQIHHSLALLPEMAGSDATPRVSVAMLQSYVQRHFSQPDLRAEHLARQFGISVRRVHQLFEPTGHTVSEFINDLRLARAADCLGDAALARRTISEIAWQVGYSDPSYFTRRFKRRYGCSPRAYRAAHHPAPIARLS | not soluble |
| MSLSKIKSVRTRVWNWTGPTVPPTGNFCTNASDVLWDKGDAMSSFRFHQWLTCEVETDDGTIGIGNAALAPTVVKKAIDDWFAPMVIGEDPFDYAYLWEKMYRRSHAWGRKGIGMTAISAVDLAIWDLMGKLTGKPVFKLLGGRTKEKIPVYYSKLYSGPIDTMQAEAEEARKNNYPGYKMRFGWGPKDGMAGMRENLKRVEAVREVIGYDVDLMLECYQGWNLDYTKRMLPKLVKYEPRWLEEPVIADDVEGYRELNAMNIVPISGGEHEFSVIGCKDLIEKKAVSVLQYDTNRVGGITAAQKINAIAEAFQVPVIPHAGQMHNYHLTMANANCMISEYFPVFDVEVGNELFYYIFEGDPAAVDGFLDLDDNIPGLGISITDKYLKHFEIQEEGHHHHHH | soluble |
| GDQPVINFGIISTESSQNLKSIWEPFLKDMSQQTGYQVKAFFAPDYAGIIQGMRFDKVDIAWYGNKAAMEAVDRAHGEIFAQTVAASGAPGYWSLLIANKDSKIDSLEDMLANAKSLTFGNGDPNSTSGYLVPGYYVFAKNNVDPVKAFKRTLNSSHEVNALAVANKQVDVATFNTEGMERLELTQPEKARQLKVIWKSPLIPGDPLVWRNNLSDEQKNKLRDFFFKYGANAEQKKVLADLQWSKFQASDDDQLLPIRQLELFKQRTDVANNANLGAEEKAAKLKALDEELAKLEKRMAEREQKTAANAG | soluble |
| MRLSILLLVAAHVANGLFGFGEKKTTQAPKISLGSEISIPHTDEDQDTGEIVIPFNDPSTTTTRRRTATTTGIPVISVGGIGLDRTRSTVDVRSFTTTINPRFTAATKRLPSSDRHSSSGCPNRIDAYTFGPDSDYAFYEQQVFKISNNRISDRTTLVEEFKDGPNQVNGALYDPEREILWLVDGRSVYGYKKDGSDNWKLQSVFPKELPSSIGFTPEAAVRWHNKHQLLLSNGGKFALYDEYWNKSLMTGRTESYFENLPDRVRGISTWNSQGHAHIYTQSLVFEYDSEMKKVTGDGVPLGDFWRC | not soluble |
| MNSRSTAEITDYLNEKITKKDALELFSLPIHAVGRIADEIRKVKCGDLVTFVNDTNINYTNICLSKCRFCAFYAREKGYVLSHEEILRKVGYAVKMGATQIMLQGGMNPDLGLEWFEELFRKIKARFSSVHIHSLSPPEIVFLAKLERSSIREVLDRLKAAGLDSLPGGGAEILVDSVRRKISPNKCSSDEWLRVMETAHSLNMPTTATMMFGHVESDGDIVEHLIKIRELQEKTGGFTAFIPWTFQPGNTELYAEIKRPVSPLRYLQVLAISRIVLNNFRNIQASWLTQGFEIATLSLFFGANDFGGTMLEENVVRATGKDFRPAKIEEIVKAVKAVGRPVALRDTYYNILEWF | not soluble |
| GPGSMSYYCSGGHCLKYATPGREPPDPQLFPHYMQNAQNLWLHFSEWWPHGDGGSCPAPPTKGVVFIVPGLGEHTGRYDSVALRLNQEGYVVFSMDNQGTGGSEGERLYVECFTHFVDDVCAFVVFIQTRYAALKSQPTFLMGHSMGGLIATLVAQRDASGFRGVVLSGPALGLSKPVPCFMRSLAHFLSQWFPKLPVRKLDPDLVSYNTPVVQLVKQDPFYSNVTLRARFVDEMLIAQDRAAEAAGTSQFPFLIVHGEEDQLCSLETSKSFFKSALSEDKNLVSYPRAGHEVLTELCRAEVMAEVIKFIDERAR | not soluble |
| MSLAELNFKAIEEKWQKRWLEAKIFEPNIRDKPKEKKFYITVAFPYLSGHLHVGHARTYTIPDVIARFKRMQGYNVLFPMAWHITGSPIVGIAERIKNRDPKTIWIYRDVYKVPEEILWTFEDPINIVKYFMKAAKETFIRAGFSVDWSREFYTTSLFPPFSKFIEWQFWKLKEKGYIVKGAHRVRWDPVVGTPLGDHDLMEGEDVPILDYIIIKFELRENGEVIYLPAATLRPETVYGVTNMWVNPNATYVKAKVRRKDKEETWIVSKEAAYKLSFQDREIEVIEEFKGEKLIGKYVRNPVSGDEVIILPAEFVDPDNATGVVMSVPAHAPFDHVALEDLKRETEILEKYDIDPRIVENITYISLIKLEGYGDFPAVEEVNKLGIKSQKDKEKLEQATKTIYKAEYHKGIFKVPPYEGKPVQEVKEAIAKEMLEKGIAEIMYEFAEKNVISRFGNRAVIKIIHDQWFIDYGNPEWKEKARKALERMKILPETRRAQFEAIIDWLDKKACARKIGLGTPLPWDPEWVIESLSDSTIYMAYYTISRHINKLRQEGKLDPEKLTPEFFDYIFLEEFSEDKEKELEKKTGIPAEIIHEMKEEFEYWYPLDWRCSGKDLIPNHLTFFIFNHVAIFREEHWPKGIAVNGFGTLEGQKMSKSKGNVLNFIDAIEENGADVVRLYIMSLAEHDSDFDWRRKEVGKLRKQIERFYELISQFAEYEVKGNVELKDIDRWMLHRLNKAIKETTNALEEFRTRTAVQWAFYSIMNDLRWYLRRTEGRDDEAKRYVLRTLADVWVRLMAPFTPHICEELWEKLGGEGFVSLAKWPEPVEEWWNETIEAEEEFIRSVMEDIKEIIEVAKIENAKRAYIYTAEDWKWKVAEVVSEKRDFKSSMEELMKDSEIRKHGKEVAKIVQKLIKERTFDVKRINEEKALREAKEFMEKELGIEIIINPTEDKGGKKKQAMPLKPAIFIEEGHHHHHH | not soluble |
| MTAMPRIAFLASPAEPAVAARARLVQRYGDHALHDADIVCALGGDGFMLQTLHRHGAADKPVFGMKLGSVGFLMNQYRDDEDDLLARLQRAEPAHLRPLEMLVQTESGTSAGSLAYNEVSLLRQTRQAAHLSVDLNGQTRIAELIGDGVMVATPAGSTAYNYSAHGPILPLGSHTLALTPIAPYRPRRWRGAILKADTEVRFRVLDPYKRPVSVTADSHEIRDVVEVTIRESTERRVTLLFDPEHNLEERIFSEQFAVLEHHHHHH | not soluble |
| MAHHHHHHMAADEDAREHRTMCRLLQAATGKLSDMTVTTNIETHIATLRAANMSTSPKEWHALFNSKNNSNAYEKLSAEGKKEAGALGGAAAWGAWRTDKEEAEKKKIGTQEDKDFPAIADARQQFAAHNRLLELTAKAVEISKKWKAAKDFITNDETNNIQKLLREALYEDGAAADALTQSTSFGTGSNWASHCNGDDKRKSISGDFLCMRGGSGGAAKECSGAFTGAEIDNQGTITTKWADLKASCALNTENVITPHEIAAALGSLARQPHTTRSSK | not soluble |
| KGDVDEKLLDKGIEAVLDQTDYVNGGFGSAPKFHHAKAVELLLTHHFFTGDEEVLKAAEITLDAMARGGIYDHLLGGFFRYSTDAKWVTPHYEKMLYDNAELLYLYSIAYALTGKRLYQKIADGIVEYYRKFGCSNEGGFYASQDADIGELDEGGYYLFSDRELKEILDEREFRIATLYYDIQGERKLPRIFLTEEEISKILGVSVEEVERAVNSARRKMLEFREQREMPYIDTTIYAGWNGLMIEALCMHHKVFGDNWSLEMAEKTANRLLKEFWDGRELLHTHNVEGLSEDYIFFARGLLALFEVTQRHEYLEKCFEIVDSAVEKFWDGEDGGFFD | not soluble |
| SKKFSWNTSFNFTRNVNKVEKLENPYVYGSRDMVRNEEGYALYSFWMYNQLYVDKQTGQAVFEDVNGDGQITVADRKIMGNANPKFFGGLTNTFKYAGFDLNVFFVYQYGNKVVSFDRILNEGGGTKDNNRGIFEYNMNRWQKPGDDTDVPRVTSVGNNYGIEQNSRFLEDGSFIRLKTLTLGYTVPVDFTKKYSVQSVRFFVTGTNLLLFTKYKGPDPEAVHTSEQNARGIDVGTPPQPVSVQGGLTITL | not soluble |

— the DeepSol protein solubility set
